In US20060159683A1 (UNIVERSITY OF ZURICH, published 2006):

T1: epithelial glycoprotein-2 (EGP-2) on SW2 human small cell lung carcinoma cells (human, UniProt P16422 24-314)
T1 construct: whole, on cells; also called GA733-2; Ep-CAM
T1 sequence (looked up): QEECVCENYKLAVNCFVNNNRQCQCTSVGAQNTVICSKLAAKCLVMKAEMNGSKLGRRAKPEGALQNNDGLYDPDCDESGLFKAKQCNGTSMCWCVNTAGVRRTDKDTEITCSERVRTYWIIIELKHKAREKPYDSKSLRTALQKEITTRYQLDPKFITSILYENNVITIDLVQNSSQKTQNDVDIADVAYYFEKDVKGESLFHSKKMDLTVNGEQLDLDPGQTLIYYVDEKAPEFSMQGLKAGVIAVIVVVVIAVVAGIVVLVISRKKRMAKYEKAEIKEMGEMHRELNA

T2: recombinant soluble human epithelial glycoprotein-2 (M1-F259) with a six-histidine C-terminal tag (human, UniProt P16422 24-259)
T2 construct: range 1-259; In SPR it was amine-coupled to a CM-5 chip at 350 RU; also called recombinant soluble EGP-2-antigen; immobilized EGP-2
T2 sequence: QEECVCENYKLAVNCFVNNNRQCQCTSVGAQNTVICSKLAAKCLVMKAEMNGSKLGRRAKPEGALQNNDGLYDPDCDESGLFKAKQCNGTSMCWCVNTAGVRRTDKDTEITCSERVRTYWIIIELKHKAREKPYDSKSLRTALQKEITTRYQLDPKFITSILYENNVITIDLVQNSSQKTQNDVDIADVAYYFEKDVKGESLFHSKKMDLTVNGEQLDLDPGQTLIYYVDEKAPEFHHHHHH


Legend:
[1] = molecular target: T1, epithelial glycoprotein-2 (EGP-2) on …; assay: competition RIA on SW2 cells against 99mTc-labelled 4D5MOC-A and 4D5MOC-B
Method: (§1) In three washing steps cells were centrifuged at 1000 g for 5 min at 4° C., the supernatants discarded and the cells re-suspended in PBS/1% BSA. The remaining radioactivity was then measured in a scintillation counter. In a further binding experiment both-scFv fragments (50 ng) were incubated with different antigens, coated (500 ng/well) on a 96 well microtiter plate, to check for cross-reactivity. The wells were washed three times with PBS/1% BSA and the radioactivity was determined.

[2] = molecular target: T2, recombinant soluble human epithelial …; assay: SPR (BIAcore), EGP-2 immobilized, 20 C
Method: (§2) Kinetic rate constants were determined by surface plasmon resonance (SPR) with a BIAcore instrument. Recombinant soluble EGP-2-antigen was covalently coupled to a CM-5 sensor chip via free amine groups resulting, in a surface coverage of 350 resonance units. Single-chain Fv fragments were injected in increasing concentrations (0.1 nM 4.4 μM) at a flow rate of 30 μl/min of degassed PBS/0.005% Tween-20. Association and dissociation rate constants were calculated from the sensorgram the by a global curve fit using the BIAevaluation 3.0 software (Pharmacia).
(§3) To minimize rebinding effects which could lead to an underestimation of the off-rates, we used low density coating and high flow rate.

[3] = molecular target: T1, epithelial glycoprotein-2 (EGP-2) on …; assay: RIA, 99mTc-labelled scFv on SW2 cells, 4 C
Method: The binding affinity of the ^99mTc labelled single-chain Fv fragments was determined on SW2 cells in a radioimmunoaffinity assay (RIA). SW2 (0.5×10⁶) cells were incubated with increasing amounts of single-chain Fv fragment (100 pM-30 nM) for 1 hour at 4° C. For estimation of nonspecific binding control samples of cells were pre-incubated with a 100-fold excess of unlabelled single-chain. Fv fragment for 1 h at 4° C. The bound fraction of single-chain Fv fragment was determined in a scintillation counter. Each obtained value represents the mean of two samples. Counts per minutes (cpm) were plotted against the nanomolar concentration of single-chain Fv fragment and fitted with the non-linear regression function.
High-affinity binding with long residual time on the specific target antigen is regarded as one of the most important characteristics of antibodies for tumor targeting. To ensure that binding affinity was conserved in the grafting experiment dissociation constants of the radiolabelled single-chain Fv fragment were determined on cells in a radioimmunoactrvity assay (RIA).

c-erbB2 = molecular target: T3, c-erbB2 (UniProt P04626 23-652, limits assumed); assay: solid-phase RIA, 99mTc-labelled scFv on coated antigen
T3 construct: also called p185Her2
Method: as §1

[4] = molecular target: T4, EGF-receptor (extracellular domain) (UniProt P00533 25-645); assay: as above
T4 construct: extracellular domain
Method: as §1

[5] = molecular target: T2, recombinant soluble human epithelial …; assay: SPR (BIAcore), EGP-2 immobilized, low density coating and high flow rate
Method: as §2, §3

Binder	binding result [1]	Kd [2]	Kd [3]	koff [2]	kon [2]	binding result (c-erbB2)	binding result [4]	half-life of binding [5]
murine monoclonal antibody MOC31 (antibody, V domains shown, Whole murine antibody from hybridoma MOC31; also called mAb MOC31) VH: QVQLQQSGPELKKPGETVKISCKASGYTFTNYGMNWVKQAPGRGLKWMGWINTYTGESTYADDFKGRFAFSLETSASAAYLQINNLKNEDTATYFCARFAIKGDYWGQGTTLTVSS VL: DIVMTQSAFSNPVTLGTSASISCRSTKSLLHSNGITYLYWYLQKPGQSPQLLIYQMSNLASGVPDRFSSSGSGTDFTLRISRVEAEDVGVYYCAQNLEIPRTFGGGTKLEIK	binds							
anti-EGP-2 scFv fragment 4D5MOC-A (scFv, 99mTc-tricarbonyl complexed to the C-terminal His tag in the RIA and Lindmo assays; unlabelled in SPR. The tag itself is not in the letters., the others are not; Expected mass 29,855 Da; also called scFv 4D5MOC-A; graft variant 4D5MOC-A) scFv: DIQMTQSPSSLSASVGDRVTITCRSTKSLLHSNGITYLYWYQQKPGKAPKLLIYQMSNLASGVPSRFSSSGSGTDFTLTISSLQPEDFATYYCAQNLEIPRTFGQGTKVELKRTPSHNSHQVPSAGGPTANSGTSGSEVQLVESGGGLVQPGGSLRLSCAASGYTFTNYGMNWVRQAPGKGLEWMGWINTYTGESTYADSVKGRFTFSLDTSASAAYLQMNSLRAEDTAVYYCARFAIKGDYWGQGTLVTVSS		3.5 nM	3.6 nM					
anti-EGP-2 scFv fragment 4D5MOC-B (scFv, 99mTc-tricarbonyl bound to the C-terminal His tag in the RIA and Lindmo assays; unlabelled in SPR, Expected mass 29,897 Da; also called scFv 4D5MOC-B) scFv: DIQMTQSPSSLSASVGDRVTITCRSTKSLLHSNGITYLYWYQQKPGKAPKLLIYQMSNLASGVPSRFSSSGSGTDFTLTISSLQPEDFATYYCAQNLEIPRTFGQGTKVELKRTPSHNSHQVPSAGGPTANSGTSGSEVQLVQSGPGLVQPGGSVRISCAASGYTFTNYGMNWVKQAPGKGLEWMGWINTYTGESTYADSFKGRFTFSLDTSASAAYLQINSLRAEDTAVYYCARFAIKGDYWGQGTLLTVSS		3.9 nM	3.7 nM	0.000717 s⁻¹	184000 M⁻¹ s⁻¹	no binding (tested: 50 ng scFv on 500 ng/well antigen)	no binding (tested: 50 ng scFv on 500 ng/well antigen)	
anti-EGP-2 scFv fragment obtained from the murine hybridoma MOC31 (scFv, 99mTc-tricarbonyl bound to the C-terminal His tag in the RIA and Lindmo assays; unlabelled in SPR, Murine scFv expressed from vector pAK400 in E. coli periplasm and purified by IMAC through its His tag; also called scFv MOC31; MOC31 scFv) scFv: DIVMTQSAFSNPVTLGTSASISCRSTKSLLHSNGITYLYWYLQKPGQSPQLLIYQMSNLASGVPDRFSSSGSGTDFTLRISRVEAEDVGVYYCAQNLEIPRTFGGGTKLEIKRTPSHNSHQVPSAGGPTANSGTSGSQVQLQQSGPELKKPGETVKISCKASGYTFTNYGMNWVKQAPGRGLKWMGWINTYTGESTYADDFKGRFAFSLETSASAAYLQINNLKNEDTATYFCARFAIKGDYWGQGTTLTVSS		3 nM	10.8 nM	0.0003 s⁻¹	99000 M⁻¹ s⁻¹			~38 min
